Results published in article PMC5492851.

Legend:
[1] = target: cellular microtubules (polymerised tubulin) (human (endogenous in HeLa)) (UniProt P68363)
[2] = target: cellular microtubules (polymerised tubulin) (human (endogenous in HeLa)) (UniProt P68363); remark: listed apart in the source
[3] = target: cellular microtubules (polymerised tubulin) (human (endogenous in HeLa)) (UniProt P68363); assay: FRAP; as a1, cells treated with 1 μM Nocodazole (30 min before and during FRAP) to disassemble microtubules
[4] = target: cellular microtubules (polymerised tubulin) (human (endogenous in HeLa)) (UniProt P68363); assay: FRAP; live untreated reporter cells, 37°C, 5% CO2; EYFP bleached in a circular ROI of 2 μm radius in the cytoplasm; recovery fitted with two exponentials (A1 diffusing phase, A2 MT-bound phase)

Sequence of UniProt P68363 (P68363 whole entry, chain 1 of 2): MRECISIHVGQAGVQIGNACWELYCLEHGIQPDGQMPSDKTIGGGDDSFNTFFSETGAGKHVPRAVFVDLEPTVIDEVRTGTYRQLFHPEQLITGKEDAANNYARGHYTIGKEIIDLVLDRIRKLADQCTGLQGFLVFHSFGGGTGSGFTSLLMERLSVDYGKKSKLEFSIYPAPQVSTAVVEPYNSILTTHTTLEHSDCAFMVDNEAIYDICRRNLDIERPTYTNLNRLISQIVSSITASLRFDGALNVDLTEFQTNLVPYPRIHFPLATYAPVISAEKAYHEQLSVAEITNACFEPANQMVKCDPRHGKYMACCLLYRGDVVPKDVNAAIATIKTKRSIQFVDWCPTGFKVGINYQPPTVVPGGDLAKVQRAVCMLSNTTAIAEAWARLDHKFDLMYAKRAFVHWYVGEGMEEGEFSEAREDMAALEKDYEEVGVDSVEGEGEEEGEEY
Sequence of UniProt P68363 (P07437 whole entry, chain 2 of 2, further chain): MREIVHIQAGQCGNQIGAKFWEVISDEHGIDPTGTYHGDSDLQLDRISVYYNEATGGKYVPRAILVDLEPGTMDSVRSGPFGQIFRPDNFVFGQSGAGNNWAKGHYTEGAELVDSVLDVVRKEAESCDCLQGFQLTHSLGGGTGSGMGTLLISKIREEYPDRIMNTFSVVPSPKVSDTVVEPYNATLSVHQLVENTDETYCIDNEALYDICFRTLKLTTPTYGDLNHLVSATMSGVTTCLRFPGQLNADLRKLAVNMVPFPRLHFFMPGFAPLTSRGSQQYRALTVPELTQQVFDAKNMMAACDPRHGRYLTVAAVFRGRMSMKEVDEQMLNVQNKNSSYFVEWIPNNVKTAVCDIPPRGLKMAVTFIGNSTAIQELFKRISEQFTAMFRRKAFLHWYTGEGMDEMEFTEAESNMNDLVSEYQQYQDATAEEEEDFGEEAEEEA

“Conformational Sensitive Tau sensor (ECFP-Tau-EYFP, full length human Tau-D, 0N4R) (from UniProt P10636-6 1-383) (natural protein)” gave an NFRET of CST during treatment with 1 μM nocodazole (time course; at 10 min) [1] of 50%, an NFRET of CST (intramolecular, ECFP to EYFP) along MTs in untreated cells [2] of 14.5 and a fraction of the mobile molecules in the MT-bound phase (A2), with Nocodazole [3] of 47%. The fraction of the mobile molecules in the MT-bound phase (A2) [4] was 72% and the time constant of fluorescence recovery of the MT-bound phase (τ2) [4] was 35.2 s.
